Literature values in EP4748396A1, “PHARMACEUTICAL COMPOSITION CONTAINING ANTI-NECTIN4 ANTIBODY-DRUG CONJUGATE AND ANTI-PD-1 ANTIBODY AND USE THEREOF” (priority 2023, dated 2025).

Settings: 2019 FDA announcement

For Enfortumab Vedotin [PADCEV], the skin adverse reactions is given as “may cause severe skin adverse reactions, including Stevens-Johnson syndrome (SJS) and toxic epidermal necrolysis (TEN)”.
